Data published in paper PMC7496859.

Assays:
[1] = SEC; preparative SEC on Superdex 200 10/300 GL after Strep-Tactin affinity chromatography; running buffer 20 mM Tris/HCl pH 8.0, 150 mM NaCl; changes of pH, salt and buffering agent, addition of calcium or EDTA had no influence on the monomer/dimer ratio
[2] = biological target: SmuA(V465E), sucrose isomerase from Serratia plymuthica, produced in the cytoplasm of E. coli (Serratia plymuthica); assay: as above
[3] = biological target: SmuA(V465E), sucrose isomerase from Serratia plymuthica, produced in the periplasm of E. coli (Serratia plymuthica); assay: as above

## SmuA(V465E), sucrose isomerase from Serratia plymuthica, produced in the cytoplasm of E. coli
[1]
  ratio of dimer to monomer (SEC peaks): a ratio of 3 : 1

## SmuA(V465E), sucrose isomerase from Serratia plymuthica, produced in the cytoplasm of E. coli (enzyme)
[2]
  stoichiometry N: 2

## SmuA(V465E), sucrose isomerase from Serratia plymuthica, produced in the periplasm of E. coli
[1]
  ratio between monomer and dimer (SEC peaks): the ratio between monomer and dimer to 10 : 1

## SmuA(V465E), sucrose isomerase from Serratia plymuthica, produced in the periplasm of E. coli (enzyme)
[3]
  stoichiometry N: 2
